Residue numbers refer to the chain shown, from its start. Each block holds one binder with its values, some of them ahead of it.
Target: T1, Human TIM-3 Human Fc tagged protein (human, fluorescently labeled with HiLyte Fluor 555 (sites not given))
T1 construct: Bought construct; also called TIM-3 protein tagged with human Fc; ACROBiosystems catalog no: TM3-H5258
Assay: capture slide probed with labeled TIM-3-Fc;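 also: IgG from single CD138-enriched plasma cells, isolated from lymphocytes, immobilized on a derivatized glass slide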

B1: SCT-Fa136 (antibody, V domains shown)
VH: QVQLQQPGAELVRPGTSVKLSCKASGYTFINYWMHWVKQRPGQGLEWIGVIDPSHTSTSYNQKFKGKATLTVDTSSTTTSMQLTSLTSEDSAVYYCARNDYDGGYFDYWGQGTTLTVSS
VL: DVVMTQIPLSLPVSLGDQASISCRSSQSLVHSNGNTYLHWYLQKPGQSPKLLIYTVSNRFSGVPDRFSGSGSGTDFTLKISRLEAEDLGVYFCSQTTHVPWTFGGGTKLEIK
notes: murine IgG
- binding result: binds

B2: SCT-Fa142 (antibody, V domains shown)
VH: QVQLQQPGAELVRPGTSVRLSCKASGYSFTIYWMHWVKQRPGQGLEWIGVIDPSTSNTDYNQKFKGKATLTVDTSSSTAYMQLRSLSSEDSAVYYCARNDYDGGYFDYWGQGTTLTVSS
VL: B1 VL with I7T, S28R, P45T, T55K, L83V, T96S
notes: murine IgG
- binding result: binds

B3: SCT-Fa143 (antibody, V domains shown)
VH: QVQLQQPGAELVRSGTSVKLSCKASGYTFISYWMHWVKQRPGQGLEWIGVIDPSDTNTNYNQKFRGKATLTVDTSSSTAYMQLSSLTSEDSAVYFCARNDYDGGYFDYWGQGTTLTVSS
VL: B1 VL with I7T, V13G, P45S, T55K, L83V, V90L
notes: murine IgG
- binding result: binds

B4: SCT-Fa138 (antibody, V domains shown)
VH: B2 VH with R19K, S28T, I31R, K38R, T55S, N57S, R84S, S87T
VL: B1 VL with I7S, N35I, K50N, T55K, L83V
notes: murine IgG
- binding result: binds

B5: SCT-Fa141 (antibody, V domains shown)
VH: B3 VH with S14P, K19N, I30T, I48L, T56S, R65K, F95Y, A97S
VL: B1 VL with I7T, L83V, V90I, T96S
notes: murine IgG
- binding result: binds

B6: SCT-Fa128 (antibody, V domains shown)
VH: QVQLQQPGAELVMPGASVKLSCKASGYTFTTYWMHWVKQRPGQGLEWIGEIDPSDSYSNYNQKFKGKATLTVDKSSSTAYMQLSSLTSEDSAVYYCARNYGSNYVGYFDYWGQGTTLTVSS
VL: DIQLTQTTSSLSASLGDRVTINCRASQDISNYLNWYQQKPDGTVKLLIYYTSRLLSGVPSSFSGSGSGTDYSLTISSLEQEDIATYFCQQGKALPWTFGGGTKLEIK
notes: murine IgG
- binding result: binds

B7: SCT-Fa133 (antibody, V domains shown)
VH: B6 VH with P14S, K38R, Y60N, K63N, G66A, S84G
VL: DIQMTQSTSSLSASLGDRVTISCRASQDITNYLNWYQQKPDGTVKLLIYHTSRLHAGVPSRFSGSGSGTDYSLTISNLDQEDIATYFCQQGNALPWTFGGGTKLEIK
notes: murine IgG
- binding result: binds

B8: SCT-Fa130 (antibody, V domains shown)
VH: B6 VH with K19R, K38R, S58T, K63N, M81L, Y110H
VL: B6 VL with L4M, N22S, L55H, S77N, G91A, K92N
notes: murine IgG
- binding result: binds

B13: SCT-Fa134 (antibody, V domains shown)
VH: QVQLQQPGAELVRPGSSVKLSCKASGYNFTNYWIDWVKQRPGQGLAWIGDIYPSDNKTHYNQNFKGKATLTVDKSSNTAYMQLSSLTSEDSAVYYCAASMDYWGQGTSVTVSS
VL: DIVMTQSPSSLTVTAGEKVTMSCKSSQSLLNSKNQKNFLTWYQQKPGQPPKLLIYWASTRESGVPDRFTGSASGTDFTLTISSVQAEDLAVYYCQNDYSYPYTFGGGTKLEIK
notes: murine IgG
- binding result: binds

The remaining lines, values ahead:

- binding result: binds
B9: SCT-Fa132 (antibody, V domains shown)
VH: B6 VH with G15R, T31S, S56G, S58T, Q62H
VL: B7 VL with S7T, T30S, P40R, H50Y, L54F, A56S, D79E, A93T
notes: murine IgG

- binding result: binds
B10: SCT-Fa129 (antibody, V domains shown)
VH: B6 VH with S58T
VL: B6 VL
notes: murine IgG

- binding result: binds
B11: SCT-Fa190 (antibody, V domains shown)
VH: B6 VH with Q5R, T30N, S58T, K63N, M81L
VL: B6 VL with L4M, N22S, L55P, S77N, G91A
notes: murine IgG

- binding result: binds
B12: SCT-Fa131 (antibody, V domains shown)
VH: B6 VH with K19R, A24T, T30S, S58T, K63N, Q82K
VL: B6 VL with L4M, T8A, N22S, S30N, L55H, S77N, K92N, G99S
notes: murine IgG

- binding result: binds
B14: SCT-Fa135 (antibody, V domains shown)
VH: B13 VH with N31S, A46E, N56S, S85N, A98T
VL: B13 VL with S99D
notes: murine IgG

Source: patent publication US20230279105A1 (SINGLE CELL TECHNOLOGY, published 2023)
